In US20150175678A1 (BETH ISRAEL DEACONESS MEDICAL CENTER, published 2015):

Legend:
[1] = target: HIV-1 67970 (Clade B, X4) envelope glycoprotein gp120 (HIV-1, isolate 67970); assay: cell-based or functional assay
[2] = target: HIV-1 JR-FL (Clade B, R5) envelope glycoprotein gp120 (HIV-1, isolate JR-FL); assay: cell-based or functional assay

B1: F425-A1g8 IgA1 antibody variant expressed from CHO-K1 cells (antibody)
heavy: QEQLVESGGGVVQPGRSLRLSCEASGFIFSAFVLHWVRQAPGKGLEWVAVVWYDGNSKYYADSVKGRFTISRDTSQNTLHLQMDSLRPEDTAVYYCAREWVADDDTFDGFDVWGQGTMVTVSSASLTSPKVFPLSLCSTQPDGNVVIACLVQGFFPQEPLSVTWSESGQGVTARNFPPSQDASGDLYTTSSQLTLPATQCLAGKSVTCHVKHYTNPSQDVTVPCPVPSTPPTPSPSTPPTPSPSCCHPRLSLHRPALEDLLLGSEANLTCTLTGLRDASGVTFTWTPSSGKSAVQGPPDRDLCGCYSVSSVLSGCAEPWNHGKTFTCTAAYPESKTPLTATLSKSGNTFRPEVHLLPPPSEELALNELVTLTCLARGFSPKDVLVRWLQGSQELPREKYLTWASRQEPSQGTTTFAVTSILRVAAEDWKKGDTFSCMVGHEALPLAFTQKTIDRLAGKPTHVNVSVVMAEVDGTCY
light: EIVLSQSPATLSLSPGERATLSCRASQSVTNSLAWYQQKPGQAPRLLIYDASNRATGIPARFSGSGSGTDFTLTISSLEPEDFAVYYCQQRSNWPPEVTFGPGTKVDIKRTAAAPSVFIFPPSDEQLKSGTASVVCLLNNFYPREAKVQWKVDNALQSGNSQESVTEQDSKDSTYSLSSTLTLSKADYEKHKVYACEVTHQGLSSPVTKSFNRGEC
With B1 the “Neutralization of HIV-1, IC50 (TZM-bl cells, beta-galactosidase)” value [1] was 23.3 µg/mL and the “Neutralization of HIV-1, IC50 (TZM-bl cells, beta-galactosidase)” value [2] was 1.73 µg/mL.
